These results are taken from US20240116997A1.

Holding throughout (assay): cell-based or functional assay
Test [1] has as its target C143 (V11I, C38A, K53A, C76A, C127A) (human) (UniProt Q14116).
Test [2] deals with C146 (SEQ ID NO: 79; V11I, C38A, M51G, K53A, C76A, C127A) (human) (UniProt Q14116).
For test [3], the target named is C147 (V11I, C38A, K53A, D54A, C76A, C127A) (human) (UniProt Q14116).
In test [4] the target is C156 (V11I, C38A, N41A, K53A, C76A, C127A) (human) (UniProt Q14116).
Test [5] addresses C157 (V11I, C38A, K53A, C76A, C127A, D132A) (human) (UniProt Q14116).
The target in test [6] is C161 (K8R, V11I, C38A, C76A, Q103E, C127A) (human) (UniProt Q14116).
Sequence of C161 (K8R, V11I, C38A, C76A, Q103E, C127A) (human) (Q14116 other isoform, or with tags, fused parts or gaps V11I C38A C76A Q103E C127A V11I C38A C76A Q103E C127A): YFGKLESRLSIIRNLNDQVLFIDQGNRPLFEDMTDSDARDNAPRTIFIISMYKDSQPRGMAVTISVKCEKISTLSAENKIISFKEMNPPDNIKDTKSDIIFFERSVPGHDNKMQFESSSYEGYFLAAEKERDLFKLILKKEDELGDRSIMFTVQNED
Test [7] has as its target C163 (V11I, C38A, C76A, Q103K, C127A) (human) (UniProt Q14116).
In test [8] the target is C168 (V11I, C38A, C76A, S105K, C127A) (human) (UniProt Q14116).
Sequence of C168 (V11I, C38A, C76A, S105K, C127A) (human) (Q14116 37-193 V47I/C74A/C112A/S141K/C163A): as the sequence (Q14116 other isoform, or with tags, fused parts or gaps V11I C38A C76A Q103E C127A V11I C38A C76A Q103E C127A) above, with R8K, E103Q, S105K counted along it
In test [9] the target is IL-18 WT (native sequence, SEQ ID NO: 1) (human) (UniProt Q14116).
Sequence of IL-18 WT (native sequence, SEQ ID NO: 1) (human) (Q14116 37-193): as the sequence (Q14116 other isoform, or with tags, fused parts or gaps V11I C38A C76A Q103E C127A V11I C38A C76A Q103E C127A) above, with R8K, I11V, A38C, A76C, E103Q, A127C counted along it
For test [10], the target named is IL-18 polypeptide SEQ ID NO: 34 (E06K, K53A, S55A) (human) (UniProt Q14116).
Sequence of IL-18 polypeptide SEQ ID NO: 34 (E06K, K53A, S55A) (human) (Q14116 37-193 E42K/K89A/S91A): as the sequence (Q14116 other isoform, or with tags, fused parts or gaps V11I C38A C76A Q103E C127A V11I C38A C76A Q103E C127A) above, with E6K, R8K, I11V, A38C, K53A, S55A, A76C, E103Q, A127C counted along it
Test [11] concerns the target IL-18 polypeptide SEQ ID NO: 39 (E06K, K53A) (human) (UniProt Q14116).
For test [12], the target named is IL-18 polypeptide SEQ ID NO: 4 (E6K, C38A, K53A, C68A, M86C) (human) (UniProt Q14116).
Sequence of IL-18 polypeptide SEQ ID NO: 4 (E6K, C38A, K53A, C68A, M86C) (human) (Q14116 other isoform, or with tags, fused parts or gaps C38A K53A C68A M86C C38A K53A C68A M86C): as the sequence (Q14116 other isoform, or with tags, fused parts or gaps V11I C38A C76A Q103E C127A V11I C38A C76A Q103E C127A) above, with E6K, R8K, I11V, K53A, C68A, A76C, M86C, E103Q, A127C counted along it
For test [13], the target named is IL-18 polypeptide SEQ ID NO: 40 (E06K, S55A) (human) (UniProt Q14116).
Sequence of IL-18 polypeptide SEQ ID NO: 40 (E06K, S55A) (human) (Q14116 37-193 E42K/S91A): as the sequence (Q14116 other isoform, or with tags, fused parts or gaps V11I C38A C76A Q103E C127A V11I C38A C76A Q103E C127A) above, with E6K, R8K, I11V, A38C, S55A, A76C, E103Q, A127C counted along it
Test [14] concerns the target IL-18 polypeptide SEQ ID NO: 41 (K53A, S55A) (human) (UniProt Q14116).
For test [15], the target named is IL-18 polypeptide SEQ ID NO: 42 (E06K, K53A, S55A, T63A) (human) (UniProt Q14116).
Sequence of IL-18 polypeptide SEQ ID NO: 42 (E06K, K53A, S55A, T63A) (human) (Q14116 37-193 E42K/K89A/S91A/T99A): as the sequence (Q14116 other isoform, or with tags, fused parts or gaps V11I C38A C76A Q103E C127A V11I C38A C76A Q103E C127A) above, with E6K, R8K, I11V, A38C, K53A, S55A, T63A, A76C, E103Q, A127C counted along it
Test [16] concerns the target IL-18 polypeptide SEQ ID NO: 48 (C38S, C68S, C76S, C127S, K70C) (human) (UniProt Q14116).
In test [17] the target is IL-18 polypeptide SEQ ID NO: 51 (T63A) (human) (UniProt Q14116).
Sequence of IL-18 polypeptide SEQ ID NO: 51 (T63A) (human) (Q14116 37-193 T99A): as the sequence (Q14116 other isoform, or with tags, fused parts or gaps V11I C38A C76A Q103E C127A V11I C38A C76A Q103E C127A) above, with R8K, I11V, A38C, T63A, A76C, E103Q, A127C counted along it
Test [18] deals with IL-18 polypeptide SEQ ID NO: 53 (K53A, T63A) (human) (UniProt Q14116).
Sequence of IL-18 polypeptide SEQ ID NO: 53 (K53A, T63A) (human) (Q14116 37-193 K89A/T99A): as the sequence (Q14116 other isoform, or with tags, fused parts or gaps V11I C38A C76A Q103E C127A V11I C38A C76A Q103E C127A) above, with R8K, I11V, A38C, K53A, T63A, A76C, E103Q, A127C counted along it
The target in test [19] is IL-18 polypeptide SEQ ID NO: 54 (E06K, K53A, C38S, C68S, C76S, C127S, K70C) (human) (UniProt Q14116).
Sequence of IL-18 polypeptide SEQ ID NO: 54 (E06K, K53A, C38S, C68S, C76S, C127S, K70C) (human) (Q14116 37-193 E42K/C74S/K89A/C104S/K106C/C112S/C163S): as the sequence (Q14116 other isoform, or with tags, fused parts or gaps V11I C38A C76A Q103E C127A V11I C38A C76A Q103E C127A) above, with E6K, R8K, I11V, A38S, K53A, C68S, K70C, A76S, E103Q, A127S counted along it
Test [20] deals with IL-18 polypeptide SEQ ID NO: 55 (K53A, T63A, C38S, C68S, C76S, C127S, K70C) (human) (UniProt Q14116).
Sequence of IL-18 polypeptide SEQ ID NO: 55 (K53A, T63A, C38S, C68S, C76S, C127S, K70C) (human) (Q14116 37-193 C74S/K89A/T99A/C104S/K106C/C112S/C163S): as the sequence (Q14116 other isoform, or with tags, fused parts or gaps V11I C38A C76A Q103E C127A V11I C38A C76A Q103E C127A) above, with R8K, I11V, A38S, K53A, T63A, C68S, K70C, A76S, E103Q, A127S counted along it
Test [21] addresses IL-18 polypeptide SEQ ID NO: 60 (E6K, C38Q, K53A) (human) (UniProt Q14116).

Sequence of C143 (V11I, C38A, K53A, C76A, C127A) (human) (Q14116 37-193 V47I/C74A/K89A/C112A/C163A): as the sequence (Q14116 other isoform, or with tags, fused parts or gaps V11I C38A C76A Q103E C127A V11I C38A C76A Q103E C127A) above, with R8K, K53A, E103Q counted along it
Sequence of C163 (V11I, C38A, C76A, Q103K, C127A) (human) (Q14116 37-193 V47I/C74A/C112A/Q139K/C163A): as the sequence (Q14116 other isoform, or with tags, fused parts or gaps V11I C38A C76A Q103E C127A V11I C38A C76A Q103E C127A) above, with R8K, E103K counted along it
Sequence of IL-18 polypeptide SEQ ID NO: 41 (K53A, S55A) (human) (Q14116 37-193 K89A/S91A): as the sequence (Q14116 other isoform, or with tags, fused parts or gaps V11I C38A C76A Q103E C127A V11I C38A C76A Q103E C127A) above, with R8K, I11V, A38C, K53A, S55A, A76C, E103Q, A127C counted along it
Sequence of C146 (SEQ ID NO: 79; V11I, C38A, M51G, K53A, C76A, C127A) (human) (Q14116 37-193 V47I/C74A/M87G/K89A/C112A/C163A): as the sequence (Q14116 other isoform, or with tags, fused parts or gaps V11I C38A C76A Q103E C127A V11I C38A C76A Q103E C127A) above, with R8K, M51G, K53A, E103Q counted along it
Sequence of C156 (V11I, C38A, N41A, K53A, C76A, C127A) (human) (Q14116 37-193 V47I/C74A/N77A/K89A/C112A/C163A): as the sequence (Q14116 other isoform, or with tags, fused parts or gaps V11I C38A C76A Q103E C127A V11I C38A C76A Q103E C127A) above, with R8K, N41A, K53A, E103Q counted along it
Sequence of C157 (V11I, C38A, K53A, C76A, C127A, D132A) (human) (Q14116 37-193 V47I/C74A/K89A/C112A/C163A/D168A): as the sequence (Q14116 other isoform, or with tags, fused parts or gaps V11I C38A C76A Q103E C127A V11I C38A C76A Q103E C127A) above, with R8K, K53A, E103Q, D132A counted along it
Sequence of IL-18 polypeptide SEQ ID NO: 48 (C38S, C68S, C76S, C127S, K70C) (human) (Q14116 37-193 C74S/C104S/K106C/C112S/C163S): as the sequence (Q14116 other isoform, or with tags, fused parts or gaps V11I C38A C76A Q103E C127A V11I C38A C76A Q103E C127A) above, with R8K, I11V, A38S, C68S, K70C, A76S, E103Q, A127S counted along it
Sequence of IL-18 polypeptide SEQ ID NO: 39 (E06K, K53A) (human) (Q14116 37-193 E42K/K89A): as the sequence (Q14116 other isoform, or with tags, fused parts or gaps V11I C38A C76A Q103E C127A V11I C38A C76A Q103E C127A) above, with E6K, R8K, I11V, A38C, K53A, A76C, E103Q, A127C counted along it
Sequence of IL-18 polypeptide SEQ ID NO: 60 (E6K, C38Q, K53A) (human) (Q14116 other isoform, or with tags, fused parts or gaps C38Q K53A C38Q K53A): as the sequence (Q14116 other isoform, or with tags, fused parts or gaps V11I C38A C76A Q103E C127A V11I C38A C76A Q103E C127A) above, with E6K, R8K, I11V, A38Q, K53A, A76C, E103Q, A127C counted along it
Sequence of C147 (V11I, C38A, K53A, D54A, C76A, C127A) (human) (Q14116 37-193 V47I/C74A/K89A/D90A/C112A/C163A): as the sequence (Q14116 other isoform, or with tags, fused parts or gaps V11I C38A C76A Q103E C127A V11I C38A C76A Q103E C127A) above, with R8K, K53A, D54A, E103Q counted along it

Regarding “Fc-fused human IL-18 binding protein isoform a (IL-18BPa) (from UniProt O95998 31-194) (Fc fusion)”, the IC50 (nM), IL-18BPa inhibition of IFNγ induction, NK-92 cells turned out to be 7.52 nM in test [1]; 47.6 nM in test [2]; 5.05 nM in test [3]; 6.08 nM in test [4]; 3.98 nM in test [5]; 7.29 nM in [6]. The IC50 (nM), IL-18BPa inhibition of IFNγ induction, NK-92 cells was 0.456 nM in [7]; 5.85 nM in test [8]; 1.47 nM in test [9]; 229 nM in test [10]; above 703 nM in test [11]; 396 nM in test [12]. Also, the IC50 (nM), IL-18BPa inhibition of IFNγ induction, NK-92 cells in test [13] worked out at 15 nM; in [14] it was 37.3 nM; in test [15], 1060 nM; in test [16], 0.114 nM; in [17], 0.239 nM; in test [18], 18.2 nM. Besides, the IC50 (nM), IL-18BPa inhibition of IFNγ induction, NK-92 cells in [19] was 23.5 nM; in test [20], above 1000 nM; in test [21], 654 nM.
